Measurements as given in the supplement of paper PMC7877785.
± gives the uncertainty stated by the source.

Assay: self-splicing fitness, log relative to wild type (ln ratio); higher = more splicing; Tetrahymena group I intron in knt gene, E. coli kanamycin selection, DiMSum; sequences stand for … in CUCUCU…GGAGGGAAAAGUUAUCAGGCAUGCACCUGGUAGCUAGUCUUUAAACCAAUAGAUUGCAUCGGUUUAAAAGGCAAGACCGUCAAAUUGCGGGAAAGGGGUCAACAGCCGUUCAGUACCAAGUCUCAGGGGAAACUUUGAGAUGGCCUUGCAAAGGGUAUGGUAAUAAGCUGACGGACAUGGUCCUAACCACGCAGCCAAGUCCUAAGUCAACAGAUCUUCUGUUGAUAUGGAUGCAGUUCACAGACUAAAUGUCGGUCGGGGAAGAUGUAUUCUUCUCAUAAGAUAUAGUCGGACCUCUCCUUAAUGGGAGCUAGCGGAUGAAGUGAUGCAACACUGGAGCCGCUGGGAACUAAUUUGUAUGCGAAAGUAUAUUGAUUAGUUUUGGAGUACUCGUGGUCG
Outline: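 A randomised library covering all eight P1ex-region intron nucleotides was built with the intron in the knt kanamycin-resistance gene on pET-22b(+) and held in E. coli BL21(DE3). Cells were grown overnight at 37°C or 30°C on LB agar, with or without 25 μg/mL kanamycin, plus 100 μg/mL carbenicillin, 50 μM IPTG and 0.2% rhamnose, and pooled colonies were amplicon-sequenced on an Illumina HiSeq 2500. DiMSum fitness is the error-weighted combination of wild-type-normalised replicate fold changes, kanamycin versus none.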

Sequence: UCAAAGCAAUAUUACGCAUG
- self-splicing fitness (ln) (30 °C): -1.44 ± 0.12
- self-splicing fitness (ln) (37 °C): -1.27 ± 0.14

Sequence: UUAAAGCAAUAUUACGCAUU
- self-splicing fitness (ln) (30 °C): -2.76 ± 0.15
- self-splicing fitness (ln) (37 °C): -2.86 ± 0.27

Sequence: CUGGAGCAAUAUUACGAGAU
- self-splicing fitness (ln) (30 °C): -4.02 ± 0.39
- self-splicing fitness (ln) (37 °C): -2.49 ± 0.44

Sequence: GGCUAGCAAUAUUACGGAUU
- self-splicing fitness (ln) (30 °C): -0.369 ± 0.13
- self-splicing fitness (ln) (37 °C): 0.405 ± 0.16

Sequence: AGUUAGCAAUAUUACGAAGA
- self-splicing fitness (ln) (30 °C): -1.18 ± 0.4
- self-splicing fitness (ln) (37 °C): -2.26 ± 0.34

Sequence: CCAAAGCAAUAUUACGCAGG
- self-splicing fitness (ln) (30 °C): -3.23 ± 0.15
- self-splicing fitness (ln) (37 °C): -3.74 ± 0.27

Sequence: GACAAGCAAUAUUACGGCAA
- self-splicing fitness (ln) (30 °C): -0.787 ± 0.075
- self-splicing fitness (ln) (37 °C): -0.384 ± 0.074

Sequence: AGUCAGCAAUAUUACGAACU
- self-splicing fitness (ln) (30 °C): -0.853 ± 0.089
- self-splicing fitness (ln) (37 °C): 0.15 ± 0.11

Sequence: AUACAGCAAUAUUACGCCCU
- self-splicing fitness (ln) (30 °C): -0.0578 ± 0.06
- self-splicing fitness (ln) (37 °C): -0.247 ± 0.072

Sequence: UGAUAGCAAUAUUACGCUGU
- self-splicing fitness (ln) (30 °C): -2.61 ± 0.27
- self-splicing fitness (ln) (37 °C): -3.08 ± 0.38

Sequence: CCCAAGCAAUAUUACGCCAA
- self-splicing fitness (ln) (30 °C): -2.82 ± 0.16
- self-splicing fitness (ln) (37 °C): -2.47 ± 0.2

Sequence: CCGCAGCAAUAUUACGAGUG
- self-splicing fitness (ln) (30 °C): -0.193 ± 0.052
- self-splicing fitness (ln) (37 °C): -0.212 ± 0.069

Sequence: AUGCAGCAAUAUUACGUACG
- self-splicing fitness (ln) (30 °C): -2.15 ± 0.1
- self-splicing fitness (ln) (37 °C): -0.573 ± 0.12

Sequence: CUAGAGCAAUAUUACGAUCA
- self-splicing fitness (ln) (30 °C): -2.35 ± 0.45

Sequence: AUGGAGCAAUAUUACGCGAU
- self-splicing fitness (ln) (30 °C): -2.66 ± 0.49
- self-splicing fitness (ln) (37 °C): -1.82 ± 0.4

Sequence: GGUGAGCAAUAUUACGACCA
- self-splicing fitness (ln) (30 °C): -1.21 ± 0.25
- self-splicing fitness (ln) (37 °C): -0.616 ± 0.31

Sequence: AAAUAGCAAUAUUACGUGGC
- self-splicing fitness (ln) (30 °C): -4.1 ± 0.28
- self-splicing fitness (ln) (37 °C): -1.43 ± 0.2

Sequence: AAGGAGCAAUAUUACGAAGG
- self-splicing fitness (ln) (30 °C): -3.3 ± 0.28
- self-splicing fitness (ln) (37 °C): -2.99 ± 0.41

Sequence: GUCCAGCAAUAUUACGUUAG
- self-splicing fitness (ln) (30 °C): -3.15 ± 0.11
- self-splicing fitness (ln) (37 °C): -1.19 ± 0.095

Sequence: ACCAAGCAAUAUUACGUAAG
- self-splicing fitness (ln) (30 °C): -2.18 ± 0.063
- self-splicing fitness (ln) (37 °C): -1.37 ± 0.098

Sequence: UGGCAGCAAUAUUACGCGUC
- self-splicing fitness (ln) (30 °C): -3.54 ± 0.37
- self-splicing fitness (ln) (37 °C): -2.21 ± 0.3

Sequence: UGGGAGCAAUAUUACGAUUG
- self-splicing fitness (ln) (37 °C): -2.29 ± 0.4

Sequence: CGGGAGCAAUAUUACGUGCU
- self-splicing fitness (ln) (30 °C): -3.7 ± 0.21
- self-splicing fitness (ln) (37 °C): -2.87 ± 0.22

Sequence: CAAAAGCAAUAUUACGAUUA
- self-splicing fitness (ln) (30 °C): -0.53 ± 0.084
- self-splicing fitness (ln) (37 °C): -0.187 ± 0.087

Sequence: CCGAAGCAAUAUUACGUAAC
- self-splicing fitness (ln) (30 °C): -4.94 ± 0.34
- self-splicing fitness (ln) (37 °C): -1.67 ± 0.2

Sequence: AGAUAGCAAUAUUACGGGAU
- self-splicing fitness (ln) (30 °C): -1.24 ± 0.19
- self-splicing fitness (ln) (37 °C): -1.21 ± 0.16

Sequence: AACAAGCAAUAUUACGGACU
- self-splicing fitness (ln) (30 °C): -0.217 ± 0.063
- self-splicing fitness (ln) (37 °C): 0.775 ± 0.099

Sequence: CCCUAGCAAUAUUACGGCCC
- self-splicing fitness (ln) (30 °C): -3.9 ± 0.27
- self-splicing fitness (ln) (37 °C): -0.5 ± 0.38

Sequence: AUCAAGCAAUAUUACGCUCC
- self-splicing fitness (ln) (30 °C): -0.122 ± 0.16
- self-splicing fitness (ln) (37 °C): -1.04 ± 0.17

Sequence: CGGCAGCAAUAUUACGCUAA
- self-splicing fitness (ln) (30 °C): -1.59 ± 0.1
- self-splicing fitness (ln) (37 °C): -2.03 ± 0.15

Sequence: GCCCAGCAAUAUUACGCGUU
- self-splicing fitness (ln) (30 °C): 0.0719 ± 0.046
- self-splicing fitness (ln) (37 °C): 0.222 ± 0.065

Sequence: CUUCAGCAAUAUUACGCCUU
- self-splicing fitness (ln) (30 °C): -2.35 ± 0.15
- self-splicing fitness (ln) (37 °C): -3.25 ± 0.25

Sequence: UACUAGCAAUAUUACGCGUA
- self-splicing fitness (ln) (30 °C): -2.63 ± 0.22
- self-splicing fitness (ln) (37 °C): -2.33 ± 0.23

Sequence: UAGCAGCAAUAUUACGCUAG
- self-splicing fitness (ln) (30 °C): -2.94 ± 0.12
- self-splicing fitness (ln) (37 °C): -1.96 ± 0.17

Sequence: GAAAAGCAAUAUUACGAUUC
- self-splicing fitness (ln) (30 °C): -2.34 ± 0.17
- self-splicing fitness (ln) (37 °C): -1.42 ± 0.15

Sequence: ACGGAGCAAUAUUACGUAUG
- self-splicing fitness (ln) (30 °C): -3.6 ± 0.2
- self-splicing fitness (ln) (37 °C): -2.81 ± 0.32

Sequence: AGCGAGCAAUAUUACGAUGA
- self-splicing fitness (ln) (30 °C): -2.57 ± 0.44

Sequence: CCGAAGCAAUAUUACGAGCA
- self-splicing fitness (ln) (30 °C): -2.35 ± 0.22
- self-splicing fitness (ln) (37 °C): -2.9 ± 0.36

Sequence: CGAGAGCAAUAUUACGUGAA
- self-splicing fitness (ln) (30 °C): -3.24 ± 0.2
- self-splicing fitness (ln) (37 °C): -2.44 ± 0.29

Sequence: CAGCAGCAAUAUUACGAAUU
- self-splicing fitness (ln) (30 °C): -4.16 ± 0.27
- self-splicing fitness (ln) (37 °C): -2.23 ± 0.23

Sequence: AAUAAGCAAUAUUACGGCUU
- self-splicing fitness (ln) (30 °C): -0.403 ± 0.12
- self-splicing fitness (ln) (37 °C): -0.12 ± 0.14

Sequence: AAACAGCAAUAUUACGAACU
- self-splicing fitness (ln) (30 °C): -0.252 ± 0.065
- self-splicing fitness (ln) (37 °C): -0.265 ± 0.077

Sequence: UAAGAGCAAUAUUACGCAAU
- self-splicing fitness (ln) (30 °C): -3.35 ± 0.31
- self-splicing fitness (ln) (37 °C): -2.32 ± 0.27

Sequence: UAUGAGCAAUAUUACGCUUA
- self-splicing fitness (ln) (30 °C): -3.19 ± 0.41
- self-splicing fitness (ln) (37 °C): -1.47 ± 0.26

Sequence: GACAAGCAAUAUUACGAAUC
- self-splicing fitness (ln) (30 °C): -2.49 ± 0.12
- self-splicing fitness (ln) (37 °C): -2.53 ± 0.16

Sequence: AUAUAGCAAUAUUACGCCGG
- self-splicing fitness (ln) (30 °C): -3.65 ± 0.37
- self-splicing fitness (ln) (37 °C): -0.796 ± 0.3

Sequence: CGAAAGCAAUAUUACGAAUC
- self-splicing fitness (ln) (30 °C): -2.03 ± 0.45
- self-splicing fitness (ln) (37 °C): -1.87 ± 0.26

Sequence: AUCGAGCAAUAUUACGCAUA
- self-splicing fitness (ln) (37 °C): -1.54 ± 0.36

Sequence: AGUGAGCAAUAUUACGUGAG
- self-splicing fitness (ln) (30 °C): -3.58 ± 0.31
- self-splicing fitness (ln) (37 °C): -0.839 ± 0.19
